Source: the DeepSol protein solubility set

Assay: soluble on expression in E. coli; label from the status in PepcDB or PDB records

Sequence | soluble on expression in E. coli
MSSQTILSVNNLSVSFTTNDGIVDAVKNVSFELQAGETLSIVGESGSGKSVSTNALMTLLPDNAIVHPDSSIMFEGESILDKTERQMQRIRGDRIGMIFQEPMTSLNPYMRVGIQVAEAMMCHRSVNQRKAKERVLELFDLVHLPNPQQAYDKYPHEFSGGQLQRIMIAMALINEPDILIADEPTTALDVTVQAEVLLLIKEIQAKMGMAILFITHDLGVVKHFADRVLVMCKGEVVEEGITEHLFSEPQHEYTKMLINSIPKGSKTPVDEKASELLNAEDIR | not soluble
GMENIEYVFEDVVRIYDTDAQGIAHYAAYYRFFTNTIEKFIKEKVGIPYPIVNENLWFVIAESHAIYHRPVKLGDKLTVLLNPKILSNKTIKFEFKVLKDGELTTEGYVIQIAINPKIWKSTEMPKEIMDKLSIK | soluble
MKNSFQTLKTLTTKSGTYGYYDLQELERKGVAEVSRLPFSIRVMLESLLRNEDGYQVTREDIEALARWRPDPGEINVPLKLARVILQDFTGVPAVVDLAAMRDAIKAKGGDPKRINPVVPADLVIDHSVQVDAFGTAYAFFYNVEKEYERNRERYLLLKWAQNALENFRVVPPGTGIVHQVNIEYLTKVVMTGKRDGLTLAFPDSLVGTDSHTTMVNGLGVLGWGVGGIEAEAVMLGQPYYMLAPRVVGFKLYGELPEGATATDLVLTVTEMLRKHGVVGKFVEFYGPGVAKLSTPDRATIANMAPEYGATMGFFPVDEETLNYLRQTGRPEELVELVEAYTKAVGLFRTPEAEEKVQYSEYLELDLSAVEPSLAGPKRPQDRVPLKEVKKSFLAHLTKPVKERGFGLSEDQLQRKVLVKRRDEEFELTHGSVVIAAITSCTNTSNPSVMLGAGLLAKKAVEAGLDRKPWVKTSLAPGSKVVTDYLEMSGLMPFLEALGFHLVGYGCTTCIGNSGPLPEDIAKAVEEGNLVVAAVLSGNRNFEGRINPHVKANYLASPMLVVAYALAGRMDIDFTTEPLGFDPNGKPIYLKDIWPSMEEIREAIRKTLDPELFKKEYSKVFEGDERWQALPAPTGELYQWDPESTYIQNPPFFEDLGERKVEDIRGARVLLVLGDSVTTDHISPAGAIPVKSPAGQYLISKGVKPEDFNSYGSRRGNHEVMMRGTFANIRIKNLMLDGIEGGYAKKLPEGDVDFVYNVAMRYKAEGTPLLVIAGKEYGTGSSRDWAAKGTYLLGIRAVLAESFERIHRSNLVGMGVLPLEFLPGENRETLGLTGYEVYDILGLEDLKPRKLVDIVARREDGSEVRFQAIARLDTPVEVDYYKNGGILQTVLLNMLKEAKATE | soluble
MSNIITDYSQYNEKQLHNFLNSIEKQLLKAERDKNKAIKKIQECELQERMIRQVLAQKHSQEKEPTPSLLNTIASKDDPEYDVSFGDFNDFLQIAKQERERHNA | not soluble
MGKFMMEKFVQTVSSVNYNKGVFSLYFVGQDQKNMAHGVMAESDNDLELKQVVHMPASGFMYMVSMIKNMLEDPRMEAEFNKLVAAGFLPAGDATANSAEDAAAEEKTAAKKRPAQVKK | not soluble
MSEFDFDVVVVGAGAVGLACGYALSRRGLVVAVLEEQGRIGEGVSSRNSEVIHGGLYYPTGSLKAKLCVQGRRALYAFCDAHKVPYKKCGKLVVATSEDEIARLDTIWEQALANDVEGMERLTGAQARALEPGLNAHAALLSPESGVFASHDYMLALQGEIEAAGGAVVLSTPFEGAEPLAGGGFRVRAGGAEPTDLTCRLLVTAPGLSSQAVAGRIEGYPAEQIPKAHFGKGIYFRLSGKAPFQRLIYPPPIHGALGTHYRNDMGGQAVFGPDLEYVAAPDYSVDPAKADAFAAYIRKFWPDLPADRLVPDYAGVRPKLHGPGEPQPDFQLRGVEDHGLAGLMALFGIESPGLTSSLAIGETVAERLCGASLEHHHHHH | soluble
MGSDKIHHHHHHMSNAKRLLVSDMKMGVDISENELLRQSEGLLQRLLFDHTTQRNIFWATDDYTTLGDAYKYDAPITTDSITGEHDTVIQPRVLKSKEEQANRTKDKAEVFTPSWVCNAQNNLIDEAWFGRKDVFNIEQPETKTWIATTEPITFPEGKTWKDYVCSTRMEITCGEAPYLVSRYDTTTGEFIPIPQRIGMLDRKLRIISENTSSTGEWLKMAQKAYKNIYAYEWQGDNLLLAREALLITFIEYYEEKFGKRPLDKSIEYIAYIISWNVWQMDGLKGVVPNSCTHGVSVLPDDLFESMEELILCPGCQNESIKKHNGTYCLIRDWGCKDPKTGENNRKIRFVDLIKNNI | not soluble
MDGELRAQGLRKRYGPKEVVRGVDLALRRGEIVALFGPNGAGKTTTFYMVVGFIRPTGGRIYLKGQEITALPMYKRARLGLGYLPQEPSAFRRMTALENLLAVLEFQPLSKKERLEKAKALLEELSIYHLRDRMAYSLSGGERRRLEIARALATDPDFLLLDEPFTGVDPKNVREIQKVIAELRERRGVGVFITDHAVRETLAITDRVYLMYDGQVLFHGDPETFAKDQGVRRHYLGEDYEL | soluble
SNAMKNYTLISPCFFGMEKMLAREITNLGYEIIKTEDGRITYKTDEFGIAKSNMWLRCAERVHLKIAEFEAKSFDELFENTKRINWSRYIPYGAQFPISKASSIKSKLYSTPDVQAIVKKAIVESLKKSYLEDGLLKEDKEKYPIFVFIHKDKVTISIDTTGDALHKRGYREKANKAPIRETLAAGLIYLTPWKAGRVLVDPMCGSGTILIEAAMIGINMAPGLNREFISEKWRTLDKKIWWDVRKDAFNKIDNESKFKIYGYDIDEESIDIARENAEIAGVDEYIEFNVGDATQFKSEDEFGFIITNPPYGERLEDKDSVKQLYKELGYAFRKLKNWSYYLITSYEDFEYEFGQKADKKRKLYNGMLKTNFFQYPGPKPPRNNK | soluble
MAAPVDLELKKAFAELQAKMVDTQQKVKLADLQIEQLSRVKKHANLTHGEITSLPESTRMFEGAGRMFILQSKGEISNQLLEKQKTADDKIKELEQKKTYLERSVKDAEDNIREMLMSRRAQ | not soluble
MSLKQKLSHPYLAKHISAPKIDEDKLLLFHALFEEADIKNNDRENYIVTAMLVQSALDTHDEVTTARVIKRDENKNRQLTVLAGDYFSGLYYSLLSEMKDIYMIRTLATAIKEINEHKIRLYDRSFKDENDFFESVGIVESALFHRVAEHFNLPRWKKLSSDFFVFKRLMNGNDAFLDVIGSFIQLGKTKEEILEDCFKKAKNSIESLLPLNSPIQNILINRLKTISQDQTYHQKEGHHHHHH | not soluble
MAIDHYENFPVASLLLPRRLRGAVTDIYRFARAADDIADEGAAEDAERLRQLAAFRAELHRIGAEPGTLAVPASADLAPIFTPLAATIARHQLPITPFFDLLSAFEQDISVKRYESHDDLLDYCRRSANPVGRLMLHLYGAVDEANLRDADAICTGLQLVNFWQDVRIDWRKQRVYLPEEDLRRHGVSRDDLAACRLTPQWRELMAFEVQRTRALLHSGAALPRRLPGRIGLELRLVVQGGLRILQRIEDAGYDVFMNRPELGAKDWAVMLWRAFT | not soluble
MSLSIRLHIWGDYACFTRPEMKVERVSYDVMTPSAARGILEAIHWKPAIRWHIDRLHVLKPIRFQSIRRNEVGAKASASNAKSAMKKGSTEGLGIVVDENRQQRAAMVLTNVAYVIEAHFTMTEKAGPEDTPAKHLSMFNRRAAKGQCFHRPCLGTREFAAEFALLGENDPLPEAKPRLEVRDDDFGWMLHDIDFASGRNESHFFRAVMKDGVIEVPPFKSGEVVKEGHHHHHH | soluble
GSHMAEDEPFSGAKKLRHLLENTDELIVCPGVYDGLSARTAMELGFKSLYMTGAGTTASRLGQPDLAIAQLHDMRDNADMIANLDPFGPPLIADMDTGYGGPIMVARTVEHYIRSGVAGAHLEDQILTKRCGHLSGKKVVSRDEYLVRIRAAVATKRRLRSDFVLIARTDALQSLGYEECIERLRAARDEGADVGLLEGFRSKEQAAAAVAALAPWPLLLNSVENGHSPLITVEEAKAMGFRIMIFSFATLAPAYAAIRETLVRLRDHGVVGTPDGITPVRLFEVCGLQDAMEVDNGAGGKAFSEGV | soluble
SEDDAPVIYGLEFQARALTPQTAETDAIRFLVGTQSLKYDNQIHIIDFDDENNIINKNVLLHQAGEIWHISASPADRGVLTTCYNRTSDSKVLTCAAVWRMPKELESGSHESPDDSSSTAQTLELLCHLDNTAHGNMACVVWEPMGDGKKIISLADNHILLWDLQESSSQAVLASSASLEGKGQLKFTSGRWSPHHNCTQVATANDTTLRGWDTRSMSQIYCIENAHGQLVRDLDFNPNKQYYLASCGDDCKVKFWDTRNVTEPVKTLEEHSHWVWNVRYNHSHDQLVLTGSSDSRVILSNMVSISSEPFGHLVDDDDISDQEDHRSEEKSKEPLQDNVIATYEEHEDSVYAVDWSSADPWLFASLSYDGRLVINRVPRALKYHILL | soluble
